According to patent publication US20120328616A1:

Molecular target: human FGFR1c/human β-Klotho complex (FGF21 receptor) (human) (UniProt P11362)
Experiment: cell-based or functional assay

human FGF21 (ligand) was tested, and the EC50, pERK Human Adipocyte Assay was 0.623 nM.
